According to the supplement of paper PMC10126150:
± gives the standard deviation of the averaged measurements.

System: ATP
Test: switch fluorescence ratio, 500 uM ATP over buffer (Cy3 cluster intensity, sum of 5 cycles each) (fold (ratio)); higher = stronger signal-on switching upon ATP binding; sequences stand for … in TCGTCGGCAGCGTCAGATGTGTATAAGAGACAGTTTTTTTTTTTTTTTTTTTTTTTTT…TC
Conditions: aptamer strand: ATP DNA aptamer (quencher-CACCTGGGGGAGTATTGCGGAGGAAGG + anchor), 100 nM annealed; ATP concentration: 500 uM
Procedure, shortened: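 Per cluster, summed Cy3 intensity from the target cycles was divided by that from the buffer cycles to give the fluorescence ratio, then averaged per switch-domain sequence. Clusters outside 100-1000 RFU were excluded. The Cy3-labelled switching-strand clusters, on a modified Illumina MiSeq flow-cell, were annealed to 100 nM quencher-labelled ATP aptamer and imaged in selection buffer, then after 15 min with 500 uM ATP at 22 °C, for five cycles with NaOH stripping and re-annealing between them.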
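Further: ATP exposure 15 min at 22 °C before imaging.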

Row | Sequence | switch fluorescence ratio
1 | CGATATGGTT | 1 ± 0.025
2 | CGATCGGCTG | 0.993 ± 0.019
3 | CGATCGGTGG | 1.01 ± 0.058
4 | CGATCTTGTG | 0.988 ± 0.01
5 | CGATGACATG | 0.9877 ± 0.0082
6 | CGATGATTGT | 1.03 ± 0.059
7 | CGATGCGGGG | 1.011 ± 0.0095
8 | CGATGCTCCG | 0.932 ± 0.024
9 | CGATGCTCTG | 1.01 ± 0.063
10 | CGATGCTGGT | 1.02 ± 0.053
11 | CGATGGAATC | 1.69 ± 0.042
12 | CGATGGAGAG | 1.0297 ± 0.00016
13 | CGATGGCGAC | 1.016 ± 0.0051
14 | CGATGGGAGG | 1.06 ± 0.073
15 | CGATGGGATT | 1.056 ± 0.0043
16 | CGATGGGGGA | 1.02 ± 0.018
17 | CGATGGGGGC | 0.957 ± 0.068
18 | CGATGGGTAA | 1 ± 0.033
19 | CGATGGTACG | 0.946 ± 0.05
20 | CGATGGTGAA | 1.02 ± 0.035
21 | CGATGTGTGG | 0.986 ± 0.015
22 | CGATTAGTCT | 0.9951 ± 0.0021
23 | CGATTCGAGT | 0.967 ± 0.016
24 | CGATTCGTCT | 1.05 ± 0.05
25 | CGATTGAATC | 0.991 ± 0.021

Row | Sequence | switch fluorescence ratio
26 | CGATTGATCA | 1.004 ± 0.0075
27 | CGATTTTTAG | 0.98 ± 0.032
28 | CGATTTTTGT | 0.982 ± 0.02
29 | CGCAAAAGGG | 1.54 ± 0.41
30 | CGCAAAGATT | 1.06 ± 0.024
31 | CGCAAGTATG | 1.26 ± 0.036
32 | CGCACCACGA | 1.208 ± 0.0072
33 | CGCAGATTCG | 1.01 ± 0.024
34 | CGCAGGATGG | 1.05 ± 0.05
35 | CGCAGGGAGT | 1.041 ± 0.01
36 | CGCAGGGTTC | 1.13 ± 0.12
37 | CGCATATGGC | 2.459 ± 0.016
38 | CGCATCCCGC | 1.37 ± 0.024
39 | CGCATCGCGT | 1.02 ± 0.015
40 | CGCATCGGTC | 1.16 ± 0.049
41 | CGCATGATAG | 1.24 ± 0.036
42 | CGCATGTCTC | 1.81 ± 0.11
43 | CGCATTTTGC | 1.19 ± 0.15
44 | CGCCATGGCC | 0.9924 ± 0.0066
45 | CGCCATGGGT | 0.9915 ± 0.0027
46 | CGCCATTTTT | 0.9822 ± 0.0022
47 | CGCCCCAGGA | 1.85 ± 1.1
48 | CGCCCGGAAT | 1.97 ± 0.3
49 | CGCCCGGTAA | 1.13 ± 0.043
50 | CGCCCGTTGT | 1.01 ± 0.013

Row | Sequence | switch fluorescence ratio
51 | CGCCCTTGGG | 0.992 ± 0.024
52 | CGCCGACGGC | 1.01 ± 0.018
53 | CGCCGGAGGA | 0.9697 ± 0.0067
54 | CGCCGGCTTT | 1.019 ± 0.0085
55 | CGCCGGGTCC | 1.05 ± 0.02
56 | CGCCTAAACG | 1.04 ± 0.042
57 | CGCCTCGTAC | 1.9 ± 0.062
58 | CGCCTGGGGT | 1.64 ± 0.92
59 | CGCGAAGGGT | 1.01 ± 0.026
60 | CGCGACCATT | 0.967 ± 0.051
61 | CGCGAGAGTT | 1.02 ± 0.0018
62 | CGCGAGCTTT | 1.015 ± 0.0032
63 | CGCGAGGATG | 1.022 ± 0.0099
64 | CGCGATTTTA | 1.04 ± 0.019
65 | CGCGCGGGTG | 1.121 ± 0.011
66 | CGCGCTGACA | 1.009 ± 0.0057
67 | CGCGGAGCGC | 1.17 ± 0.15
68 | CGCGGAGTGA | 1.002 ± 0.01
69 | CGCGGATGGG | 1.05 ± 0.05
70 | CGCGGCGGGT | 1.02 ± 0.034
71 | CGCGGGAGAG | 1.02 ± 0.04
72 | CGCGGGCGGA | 1.021 ± 0.0044
73 | CGCGGGGCGC | 1.03 ± 0.028
74 | CGCGGGGCGG | 1.02 ± 0.029
75 | CGCGGGGTGC | 1.06 ± 0.097

Row | Sequence | switch fluorescence ratio
76 | CGCGGGTATG | 1.05 ± 0.026
77 | CGCGGTAGCG | 0.972 ± 0.041
78 | CGCGGTCAAC | 1.35 ± 0.2
79 | CGCGGTGCTC | 3.17 ± 0.43
80 | CGCGTAAAAT | 1.04 ± 0.035
81 | CGCGTATGTT | 0.985 ± 0.026
82 | CGCGTCTCCC | 3.58 ± 0.38
83 | CGCGTTTTTG | 1.01 ± 0.014
84 | CGCTACGTGG | 0.99 ± 0.028
85 | CGCTAGGAAA | 1.006 ± 0.0076
86 | CGCTAGGGAC | 1.314 ± 0.003
87 | CGCTATTCGG | 1.04 ± 0.043
88 | CGCTATTTTT | 1.02 ± 0.02
89 | CGCTCATCTG | 0.968 ± 0.052
90 | CGCTCTTGGA | 0.976 ± 0.031
91 | CGCTGACAAG | 0.9916 ± 0.0099
92 | CGCTGATGGG | 1.01 ± 0.071
93 | CGCTGCACAT | 2.21 ± 0.045
94 | CGCTGGCCTT | 0.975 ± 0.016
95 | CGCTGGGATT | 0.9913 ± 0.0057
96 | CGCTGTACAG | 0.96028 ± 0.00038
97 | CGCTGTAGGT | 1.02 ± 0.0058
98 | CGCTTACTTT | 1.24 ± 0.021
99 | CGCTTAGGGT | 1.05 ± 0.07
100 | CGCTTAGTGG | 1.03 ± 0.0027

Row | Sequence | switch fluorescence ratio
101 | CGCTTTAGGT | 1.02 ± 0.012
102 | CGCTTTGTGT | 0.973 ± 0.032
103 | CGCTTTTCGT | 1.0023 ± 8e-05
104 | CGCTTTTGGA | 1 ± 0.036
105 | CGGAAAAAGG | 0.992 ± 0.034
106 | CGGAAAGACG | 1.05 ± 0.014
107 | CGGAACTGAA | 1.02 ± 0.072
108 | CGGAACTGGT | 1.04 ± 0.058
109 | CGGAAGGGGG | 1 ± 0.048
110 | CGGAAGGTAG | 0.962 ± 0.015
111 | CGGAATAGGG | 1.07 ± 0.052
112 | CGGAATGGGG | 1.02 ± 0.015
113 | CGGAATGTAT | 0.992 ± 0.04
114 | CGGAATTGGG | 0.9735 ± 0.0085
115 | CGGACGAAAG | 1.02 ± 0.048
116 | CGGACGGGTT | 0.985 ± 0.019
117 | CGGACTAGGG | 1.04 ± 0.022
118 | CGGACTATAT | 1.07 ± 0.032
119 | CGGACTCGTG | 0.954 ± 0.021
120 | CGGACTGTCA | 1.02 ± 0.016
121 | CGGAGAATGG | 1.11 ± 0.13
122 | CGGAGACGGT | 0.9958 ± 0.0078
123 | CGGAGCAGTG | 1.75 ± 0.055
124 | CGGAGCGACG | 1.03 ± 0.015
125 | CGGAGGACAC | 1.09 ± 0.059

Row | Sequence | switch fluorescence ratio
126 | CGGAGGAGGA | 0.993 ± 0.038
127 | CGGAGGGATG | 1.71 ± 0.66
128 | CGGAGGGGCG | 0.963 ± 0.06
129 | CGGAGGGGCT | 1.03 ± 0.015
130 | CGGAGGGGGG | 1.03 ± 0.062
131 | CGGAGGGTGG | 0.961 ± 0.041
132 | CGGAGTATAT | 1.87 ± 0.11
133 | CGGAGTTATC | 1.35 ± 0.2
134 | CGGAGTTGAA | 1.07 ± 0.027
135 | CGGATAGTCA | 1.042 ± 0.0078
136 | CGGATCGACT | 0.977 ± 0.02
137 | CGGATGAGGA | 0.984 ± 0.01
138 | CGGATGATGA | 1.02 ± 0.089
139 | CGGATGGAAA | 0.964 ± 0.02
140 | CGGATGGCC | 0.965 ± 0.036
141 | CGGATTTATC | 1.01 ± 0.033
142 | CGGATTTCAG | 0.951 ± 0.03
143 | CGGCAAAGTA | 0.972 ± 0.065
144 | CGGCAGGCTC | 1.19 ± 0.053
145 | CGGCAGGTTT | 0.992 ± 0.016
146 | CGGCATGGTG | 0.98 ± 0.02
147 | CGGCCAGGAA | 1.05 ± 0.024
148 | CGGCCGGAGT | 0.983 ± 0.0086
149 | CGGCGATCGG | 0.99 ± 0.013
150 | CGGCGCACAG | 1.31 ± 0.051

Row | Sequence | switch fluorescence ratio
151 | CGGCGCTGGA | 1.01 ± 0.055
152 | CGGCGGCCCT | 1.005 ± 0.0092
153 | CGGCGGGAGT | 1.019 ± 0.0073
154 | CGGCGGGGAG | 1 ± 0.044
155 | CGGCTAGAAG | 0.994 ± 0.038
156 | CGGCTAGGGG | 1.02 ± 0.037
157 | CGGCTAGTGC | 1.05 ± 0.042
158 | CGGCTCGTTT | 1.049 ± 0.0079
159 | CGGCTCTCTT | 1.009 ± 0.0017
160 | CGGCTGCGGG | 0.978 ± 0.022
161 | CGGCTGGACG | 0.958 ± 0.047
162 | CGGCTGGCGG | 0.997 ± 0.026
163 | CGGCTGGGGA | 1.03 ± 0.017
164 | CGGCTGTTTT | 1.037 ± 0.0082
165 | CGGCTTTGCC | 0.999 ± 0.016
166 | CGGCTTTTTA | 0.9588 ± 0.0056
167 | CGGCTTTTTG | 0.991 ± 0.034
168 | CGGGAAAAAG | 1.08 ± 0.11
169 | CGGGAAAAGA | 1.58 ± 0.99
170 | CGGGAAAATA | 1.03 ± 0.014
171 | CGGGAAGGCT | 1.06 ± 0.13
172 | CGGGAAGGTA | 0.981 ± 0.016
173 | CGGGACAGCG | 1.01 ± 0.0058
174 | CGGGACAGTT | 1 ± 0.061
175 | CGGGACTCCG | 1.02 ± 0.0032

Row | Sequence | switch fluorescence ratio
176 | CGGGACTTTT | 0.982 ± 0.044
177 | CGGGAGCCCA | 1.02 ± 0.044
178 | CGGGAGCGTT | 1.12 ± 0.18
179 | CGGGAGCTGG | 1.02 ± 0.023
180 | CGGGAGGAGG | 1 ± 0.028
181 | CGGGAGGCCT | 1.01 ± 0.062
182 | CGGGAGGGGT | 1.06 ± 0.14
183 | CGGGAGGGTG | 1.04 ± 0.038
184 | CGGGAGGGTT | 1 ± 0.02
185 | CGGGAGTGCT | 0.994 ± 0.019
186 | CGGGATATGA | 1.03 ± 0.028
187 | CGGGATCGTC | 0.977 ± 0.024
188 | CGGGATGATC | 0.9966 ± 0.0069
189 | CGGGATGGTT | 0.97 ± 0.11
190 | CGGGATGTTA | 0.996 ± 0.016
191 | CGGGATTCGT | 1 ± 0.057
192 | CGGGATTTTT | 0.973 ± 0.054
193 | CGGGCATTAG | 1.209 ± 0.0071
194 | CGGGCCATAG | 1.03 ± 0.044
195 | CGGGCCGCGG | 1.06 ± 0.083
196 | CGGGCGCTGT | 1.06 ± 0.061
197 | CGGGCGGTGG | 0.9829 ± 0.0069
198 | CGGGCGTTGT | 1 ± 0.04
199 | CGGGCTGAGA | 1.045 ± 0.0048
200 | CGGGCTGCGT | 0.962 ± 0.028
